From PMC8287531 (2021)
Where no end group is shown, it is not given here.

Target: T1, talin R7R8 rod domains (UniProt Q9Y490 1359-1659)
T1 chain: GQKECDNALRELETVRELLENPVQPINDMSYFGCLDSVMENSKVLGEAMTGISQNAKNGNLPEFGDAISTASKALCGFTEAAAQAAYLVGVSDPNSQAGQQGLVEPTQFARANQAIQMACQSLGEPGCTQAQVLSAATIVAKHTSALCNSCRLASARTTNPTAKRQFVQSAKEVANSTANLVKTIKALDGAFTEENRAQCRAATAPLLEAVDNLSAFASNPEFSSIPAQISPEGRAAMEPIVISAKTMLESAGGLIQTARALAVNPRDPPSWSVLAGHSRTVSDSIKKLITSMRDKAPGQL
Test: FP

B1: RIAM(4-30) peptide, fluorescein-labeled (peptide)
peptide: SEDIDQMFSTLLGEMDLLTQSLGVDTC
modifications: also: fluorescein-labeled, position not given here
  Kd: 3.6 µM
